Laboratory results from US20240425848.

Target: histone H3 trimethylated at lysine 9 (H3K9me3) in native chromatin of Caki-1 cells (UniProt P68431)

| Substance | Ec: global enrichment of the ATAC-seq tagmentation signal over H3K9me3-marked regions, log2(ratio) over genomic Input, Caki-1 [Continued) e] | Mc: modal enrichment of the ATAC-seq tagmentation signal over H3K9me3-marked regions, log2(ratio) over genomic Input, Caki-1 [Continued) e] | stated: no tagmentation signal over H3K9me3 ChIP-seq domains (ATAC-seq on permeabilized Caki-1 nuclei) | stated: tagmentation signal over H3K9me3 ChIP-seq domains (ATAC-seq on permeabilized Caki-1 nuclei) | tagmentation of native chromatin on permeabilized nuclei (ATAC-seq) | Ec: global enrichment of the ATAC-seq tagmentation signal over H3K9me3-marked regions, log2(ratio) over genomic Input, Caki-1; subscript printed as 0, first E line of the box | GET-seq, sequential Tn5 then TnH tagmentation, compared with ChIP-seq profiles | Mc: modal enrichment of the ATAC-seq tagmentation signal over H3K9me3-marked regions, log2(ratio) over genomic Input, Caki-1; subscript printed as 0, first M line of the box, agrees with the mode of t | TnH ATAC-seq compared with H3K9me3 and H3K4me3 ChIP-seq | enrichment of tagmentation signal over H3K9me3-marked regions, compared among TnH #1-4 | scGET-seq pseudobulk compared with H3K9me3 and H3K4me3 ChIP-seq | stated: tagmentation profile follows the H3K9me3 ChIP-seq profile (ATAC-seq, Caki-1) | stated: tagmentation profile follows the H3K9me3 ChIP-seq profile (bulk ATAC-seq with TnH alone and scGET-seq pseudo-bulk, Caki-1) [Continued) g] |
| --- | --- | --- | --- | --- | --- | --- | --- | --- | --- | --- | --- | --- | --- |
| Nextera | Ec= -3.16 | Mc= -0.89 | Nextera track (scale 0-9.3): near zero over the H3K9me3 domain at about 42.4-43.4 Mbp and only small spikes at about 43.8-44.6 Mbp of Chr. 19; peaks where the H3K4me3 track has peaks |  |  |  |  |  |  |  |  |  |  |
| TnH #1: 93aaCD (HP1α)-3×(TGS)-Tn5 | Ec= 0.01 | Mc= 0.19 |  | TnH#1 track (scale 0-6.6): continuous raised signal over the H3K9me3 domain at about 42.4-43.4 Mbp of Chr. 19, where the Tn5 and Nextera tracks are near zero, and lower continuous signal at about 43.8-44.6 Mbp; also sharp peaks at H3K4me3 positions | hybrid Tn5 constructs indeed cut and inserted oligos in regions enriched for H3K9me3 |  |  |  |  |  |  |  |  |
| TnH #2: 93aaCD (HP1α)-5×(TGS)-Tn5 | Ec= -0.41 | Mc= 0.07 |  | TnH#2 track (scale 0-7.7): signal above baseline over the H3K9me3 domain at about 42.4-43.4 Mbp of Chr. 19, where the Tn5 and Nextera tracks are near zero; the sharp peaks at H3K4me3 positions stand out more than in TnH#3 and TnH#1 | hybrid Tn5 constructs indeed cut and inserted oligos in regions enriched for H3K9me3 |  |  |  |  |  |  |  |  |
| TnH #3: 112aaCD (HP1α)-3×(TGS)-Tn5 | Ec= 0.25 | Mc= 0.31 |  | TnH#3 track (scale 0-8.0): continuous raised signal over the H3K9me3 domain at about 42.4-43.4 Mbp of Chr. 19, where the Tn5 and Nextera tracks are near zero, and lower continuous signal at about 43.8-44.6 Mbp; also sharp peaks at H3K4me3 positions (e.g. about 45.5 Mbp) | hybrid Tn5 constructs indeed cut and inserted oligos in regions enriched for H3K9me3 | E0= 0.25 | TnH mimicked more closely H3K9me3 data, and to a lesser extent H3K4me3 | M0= 0.31 | TnH captures both H3K4me3- and H3K9me3-enriched regions, unlike Tn5 which closely matches H3K4me3 profiles | We identified the construct TnH #3, from now on TnH, as the most efficient | TnH was able to target regions positive for H3K9me3 as well as H3K4me3 | TnH track (scale 0-15): broad raised signal where the H3K9me3 track has its domains, highest at about 54.5-55.7 Mbp and raised at about 59-62.5 Mbp of Chr.12, where the Tn5 track is near zero; Input (scale 0-10) flat near 0 | tnH track (scale 0-15): broad raised signal of about half the scale or more at about 33-35, 36.3-37.5 and 38.0-38.9 Mbp of chr1, over the H3K9me3 domains; tnH pseudobulk track (scale 0-15): the same three domains raised, somewhat lower; both also show small peaks at H3K4me3 positions; Input (scale 0 |
| TnH #4: 112aaCD (HP1α)-5×(TGS)-Tn5 | Ec= -0.55 | Mc= 0.07 |  | TnH#4 track (scale 0-2.7): signal above baseline over the H3K9me3 domain at about 42.4-43.4 Mbp of Chr. 19, where the Tn5 and Nextera tracks are near zero; the sharp peaks at H3K4me3 positions stand out more than in TnH#3 and TnH#1 | hybrid Tn5 constructs indeed cut and inserted oligos in regions enriched for H3K9me3 |  |  |  |  |  |  |  |  |
